# Laboratory results published in paper PMC8633249 (2021).
# B1: K2hPg, kringle-2 domain of human plasminogen (domain or fragment)
# chain: YVEFSEECMHGSGENYDGKISKTMSGLECQAWDSQSPHAHGYIPSKFPNKNLKKNYCRNPDRDLRPWCFTTDPNKRWEYCDIPRCAA
# What was measured:
# [1] = target: T1, AGL55, 55-mer A-domain peptide of PAM_(NS88.2) (Streptococcus pyogenes (GAS isolate …)); test: ITC; 4°C
# [2] = target: T1, AGL55, 55-mer A-domain peptide of …; test: ITC; 25°C
# [3] = target: T1, AGL55, 55-mer A-domain peptide of …; test: ITC; 37°C
binder,measurement,setting,value
B1,Kd,[1],2.6 nM
same,Kd,[2],31 nM
same,Kd,[3],236 nM
